This assay deals with recombinant full-length PfCSP (Plasmodium falciparum circumsporozoite protein, strain NF54) (Plasmodium falciparum NF54, UniProt P19597).

Where a chain is given by its changes, count along the chain named.

Chain of recombinant full-length PfCSP (Plasmodium falciparum circumsporozoite protein, strain NF54) (P19597 20-375): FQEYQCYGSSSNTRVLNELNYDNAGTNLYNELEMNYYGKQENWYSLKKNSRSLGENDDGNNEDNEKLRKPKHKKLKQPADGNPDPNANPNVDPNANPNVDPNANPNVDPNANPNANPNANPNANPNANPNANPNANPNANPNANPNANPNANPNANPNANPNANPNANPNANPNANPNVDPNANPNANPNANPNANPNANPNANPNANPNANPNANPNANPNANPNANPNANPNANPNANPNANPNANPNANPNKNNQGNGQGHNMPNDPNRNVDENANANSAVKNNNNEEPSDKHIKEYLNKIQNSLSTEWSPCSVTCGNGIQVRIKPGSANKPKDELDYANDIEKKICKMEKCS

B1: CL-508731 (antibody, V domains shown)
VH: QVQLVESGGGVVQPGRSLRLSCVASGFTFSNNGMHWVRQAPGKGLEWVAIIWHDGSNKFYAESVRGRFTISRDNSNNTLYLQMNSLRAEDTAVYYCARDRMFGSGSWNYFDPWGQGTLVTVSS
VL: EIVLTQSPATLSLSPGERATLSCRASQSISTYLAWYQQKPGQAPRLLIYDASNRATGIPARFSGSGSGTDFTLTISSLEPEDFAVYYCQQRSYWWTFGQGTKVEIK
In the case of B1, the binding result is given as “binds”.

B2: CL-510082 (antibody, V domains shown)
VH: B1 VH with R16K, V37I, H53Y, E62D, R65K, N76H, S106T
VL: B1 VL with I29V
Regarding B2, the binding result was “binds”.

B3: CL-509993 (antibody, V domains shown)
VH: B1 VH with H53Y, F59Y, E62D, R65K, S106T
VL: B1 VL with I29V, S30T, Y93N
B3: the binding result is listed as “binds”.

B4: CL-464097 (antibody, V domains shown)
VH: QVQLVESGGGAVQPGRSLRLSCAASGFTFSYNGMHWVRQAPGKGLEWVAIIWYDGSNKYYAESVKGRFTISRDNSKDTLYLQMNSLRAEDTAIYYCVRAWNYEDKKYSMDVWGQGTTVTVSS
VL: DIQMTQSPSTLSASVGDRVTITCRASQSISSWLAWYQQKPGKAPKLLIYKASSLESGVPSRFSGSGSGTDFTLTISSLQPDDFATYYCQQYNYFWTFGQGTKVEIR
Turning to B4, the binding result is reported as “binds”.

B5: CL-510020 (antibody, V domains shown)
VH: QVQLVESGGGVVQPGRSLRLSCAASGFTFSSFGMYWVRQAPGKGLEWVALIWYDGSNQYYADSVKGRFTISRDNSKNTLYLQMNSLRAEDTAVYYCARAGYFYGSGSPLDYWGQGTLVTVPS
VL: B4 VL with R18G, K50M, D70E, N92Y, Y93N, F94Y, R106K
B5: the binding result is on record as “binds”.

B6: CL-510092 (antibody, V domains shown)
VH: QVQLVESGGGVVQPGTSLRLSCAASGFTFSNFGMYWVRQAPGKGLEWVALIWYDGSNKFYEDSVKGRFTISRDNSKNTLYLQMNSLRAEDTAVYYCAKDGGYSGPGKYGFFRHWGQGSLVTVSS
VL: B4 VL with M4L, S31N, S65N, D70E, Q89H, Y93F, F94Y, R106K
As to B6, the binding result is recorded as “binds”.

B7: CL-510416 (antibody, V domains shown)
VH: QVQLVESGGGVVQPGRSLRLSCEASGFTFSNYGMHWVRQGPGKGLEWVALMWYDGSNKYYSDSVKGRFTISRDNSKSTLYLQMNSLRAEDTAVYYCARPITGNTHSKYTMDVWGQGTTVTVSS
VL: B4 VL with S53T, D70E, Y87F, Y93S, F94Y, R106K
As to B7, the binding result is given as “binds”.

B8: CL-508758 (antibody, V domains shown)
VH: QVQLVESGGGVVQPGRSLRLSCAASGFTFSNYGMHWVRQTPGRDLEWVAIIWYDGSYKFYADSVKGRFSISRDNSKNTLNLEMKSLRVEDTAVYYCAKAYDTSSDDKYGMDVWGQGTTVTVTS
VL: B4 VL with S31I, K50R, S53D, D70G, Y93S, F94Y, R106K
B8: the binding result is “binds”.

B9: CL-464181 (antibody, V domains shown)
VH: QVQLVESGGGAVQAGTSLRLSCAASGFSFSYNGMHWVRQGPGKGLEWVAIIWYDGGNKFYADSVKGRFTISRDNSKKMLYLQMNRLRAEDTAVYYCARAWNFADNKYSMDVWGQGTTVTVSA
VL: B4 VL with S31C, K45Q, D70E, N92Y, Y93I, F94Y, E104D, R106K
B9: the binding result is given as “binds”.

B10: CL-510418 (antibody, V domains shown)
VH: QVQLVESGGGVVQPGQSLRLSCEASGFTFSNYGMHWVRQAPVKGLEWVAIIWFDGSYKYYADSVKGRFTVSRDNSKNTLYLQMDSLRAEDTAVYYCARARKGQRSDYYGSETSYTFDNWGQGTLVTVSS
VL: B4 VL with S30N, L46F, S53I, V58I, D70E, Y93S, F94Y, R106K
As to B10, the binding result is “binds”.

B11: CL-509494 (antibody, V domains shown)
VH: QVQLVESGGGVVQPGRSLRLSCAASGFTFSNFGMHWVRQSPGRGLEWVAIIWYDGSHKFYADSVKGRFTISRDNSKNTLYLQMNSLRAEDTAVYYCAKSEQRTNDHYYKYGMDVWGQGTTVTVST
VL: B4 VL with K45T, D70E, N92T, Y93N, F94Y, R106K
As to B11, the binding result was “binds”.

B12: CL-510373 (antibody, V domains shown)
VH: QVQLVESGGGVVQPGRSLKLSCAASGFTFSSYGMHWVRQAPGRGLEWVSIIWYDGSNKFYSDSVQGRFTISRDDSKNTLYLQMNSLRAEDTAMYYCAMVANYTISSGAFDIWGHGTMVTVSS
VL: B4 VL with S31N, P40S, D70E, Y87F, N92K, Y93T, F94Y, R106K
In the case of B12, the binding result is “binds”.

B13: CL-462911 (antibody, V domains shown)
VH: QVHLVESGGGVVQPGRSLTLSCAASGFTFSSCGMHWVRQAPGKGLEWLAVIWYDGSNKYYADSVKGRFTISRDNSKNTLYLQMNSLRAEDTAVYYCARDGGYVRDYYYGMDVWGQGTTVTVSS
VL: not shown
For B13, the binding result was “binds”.

B14: CL-509940 (antibody, V domains shown)
VH: QVQLVESGGGVVQPGRSLRLSCAASGFTFSTYGMHWVRQAPGKGLEWVAVIWYDGSIKFYADSVKGRFTISRDDSKNTLYLQMNSLRAEDTAVYYCARDGGYSDSGRFGWFDPWGQGNLVTVSS
VL: EIVMTQSPVTLSVSPGERVTLSCRASQSVSSNLAWYQQKPGQAPRLLIYGASNRATGIPDRFSGSGSGTEFSLTVTSLQSEDFAVYYCQQYNQWRTFGQGTKVEIR
Regarding B14, the binding result is listed as “binds”.

B15: CL-509930 (antibody, V domains shown)
VH: QVQLVESGGGVVQPGRSLRLSCAASGFTFSSYGMHWVRQAPGKGLEWVAIIWHDGSNKYYADSVKGRFTISRDNSKNTLYLQMNSLRAEDTAVYYCARDYSSFYFDYWGQGTLVTVSS
VL: not shown
Turning to B15, the binding result is “binds”.

B16: CL-509293 (antibody, V domains shown)
VH: B11 VH with E6A, S21T, F32Y, H57N, S99A, H106N
VL: not shown
On to B16, for which the binding result was “binds”.

B17: CL-509177 (antibody, V domains shown)
VH: QVQLVESGGGVVQPGRSLRLSCAASGFSFSSYGMHWVRQTPGKGLEWVAIIWYDGSNKFYADSVKGRFIISRDNSKNTLYLQMNSLRAEDTAVYYCARDGGYSTSAGDFDYWGQGTLVTVSS
VL: EIVLTQSPGTLSLSPGERATLSCRASQSVSSSYLAWYQQKPGQAPRLLIYGASSRATGIPDRFSGRGSGTDFTLTISRLEPEDFAVYYCQQYVSSFTFGPGTKVDIN
In the case of B17, the binding result is listed as “binds”.

B18: CL-509025 (antibody, V domains shown)
VH: QVQLVESGGGVVQPGRSLRLSCVASGFTFSDYGMHWVRQAPGKGLEWVAVIWYDGTKEFFADSVKGRFTISRDNSKDTLYLQMNSLRAEDTGIYYCATYKWNSHLDYWGQGTLVTVSS
VL: EIVLTQSPATLSLSPGERATLSCRASQTISSYLAWYQQKPGQAPRLLIYDASNRATGIPARFSGSGSGTDFTLTISSLEPEDFTVYYCQQRSNWPLTFGGGTKVGIK
Consider B18, for which the binding result is on record as “binds”.

B19: CL-509880 (antibody, V domains shown)
VH: QVQLVESGGGVVQPGRSLRLSCAASGFTFSNSGMHWVRQAPGKGLEWVAVIWYDGSNKYYADSVKGRFTVTRDNSKNTLYLQMNSLRAEDTAVYYCVRAYYGSGSYHFKYGMDVWGQGTTVTVSS
VL: not shown
As for B19, the binding result is listed as “binds”.

B20: CL-509326 (antibody, V domains shown)
VH: QVYLVESGEGVVQPGRSLRLSCAASGFTFSNYGMHWVRQAPGKGLEWVAVIWYNGNNKFYADSVKGRFTISRDNSKNTLFLQMNSLRAEDTAVYFCARSGYSRSSYFDYWGQGTLVTVSS
VL: QSVLTQPPSVSGAPGQRVTISCTGSSSNIGAVYDVHWYQQLPGTAPKLLIYGNTNRPSGVPDRFSGSQSGTSASLAITGLQAEDEADYYCQSYDSSLSGSVFGGGTKLTVL
Take B20: the binding result was “binds”.

B21: CL-464277 (antibody, V domains shown)
VH: QVQLVASGGGVVQPGRSLRLSCAVSGFTFRNYGMHWVRQDPGRGLEWVAIIWYDGSYKFYADSVKGRFTISRDNSKNTLYLQMNSLRAEDTAVYYCARSYGSLTGDQTKYGMDVWGQGTTVSVSS
VL: not shown
Regarding B21, the binding result is “binds”.

B22: CL-460619 (antibody, V domains shown)
VH: QVQLVESGGGVVQPGRSLRLSCAASGFTFDYYGMHWVRQAPGKGLEGVAIIWYDGSNKFYADSVKGRFTISRDNSKNTLYLQMTSLRVEDTAVYYCARDGRIGDPGPYFDYWGQGTLVTVSS
VL: EIVMTQSPATLSVSPGERPTLSCRASQSVSSKLAWYQQKPDQAPRLLIYGASTRATGIPPRFSGSGSGTEFTLTIDSLQSEDFAVYYCQQYHKWWTFGQGTKVEIK
Consider B22, for which the binding result is “binds”.

B23: CL-462788 (antibody, V domains shown)
VH: QVQLVESGGGVVQPGRSLRLSCAASGFTFRNYGMHWVRQAPGKGLEWVAIIWYDGSYKFYADSVKGRFTISRDNSKNTLYLQMNSLRAEDTAMYYCARDDALELRSFDIWGQGTMVTVSS
VL: DVVMTQSPLSLPVTLGQPASISCRSSQSLVYSDENTYLSWFQQRPGQSPRRLIYKISNRDSGVPDRFSGSGSGTDFTLKISRVEAEDVGVYYCMQGTHWPRTFGQGTEVEIK
For B23, the binding result was “binds”.

B24: CL-509370 (antibody, V domains shown)
VH: QVQLVESGGGVVQPGRSLRLSCAASGFTFSSYGMHWVRQAPGKGLEWVAVIWYDGSNKFYADSVKGHFTISRDNSKNTLYLQMNSLRAEDTAVYYCARDGRDLRGTGPYFDPWGQGTLVTVSS
VL: EIVMTQSPATLSVSPGERAILSCRASQSVSSNLAWYQQKPGQAPRLLIYGASIRATGIPARFRGSGSGTEFTLTISILQSEDFAVYYCQQYNNWITFGQGTRLEIK
Regarding B24, the binding result is “binds”.

The values are drawn from paper PMC10720262 (Cell Reports, 2023).
